Data on one molecule can be found in publication PMC4081103, “PARG is dispensable for recovery from transient replicative stress but required to prevent detrimental accumulation of poly(ADP-ribose) upon prolonged replicative stress”.

The data set has as its target RPA heterotrimer (RPA1, RPA2, RPA3) (UniProt P27694;P15927;P35244 1-616;1-270;1-121). Description: EMSA; low PAR (lanes 3-4, from 8 ng) mixed with DNA before RPA; free DNA decreased; PBS, 20 ul, 20-23 C (room temperature), 30 min; 1% agarose gel in 0.5x TBE at 4 C; pH not stated. As to conditions: protein: recombinant; copies: 1;1;1; label: 5' Cy5.5; single strand.

Chain of RPA heterotrimer (RPA1, RPA2, RPA3) (P27694 whole entry, chain 1 of 3): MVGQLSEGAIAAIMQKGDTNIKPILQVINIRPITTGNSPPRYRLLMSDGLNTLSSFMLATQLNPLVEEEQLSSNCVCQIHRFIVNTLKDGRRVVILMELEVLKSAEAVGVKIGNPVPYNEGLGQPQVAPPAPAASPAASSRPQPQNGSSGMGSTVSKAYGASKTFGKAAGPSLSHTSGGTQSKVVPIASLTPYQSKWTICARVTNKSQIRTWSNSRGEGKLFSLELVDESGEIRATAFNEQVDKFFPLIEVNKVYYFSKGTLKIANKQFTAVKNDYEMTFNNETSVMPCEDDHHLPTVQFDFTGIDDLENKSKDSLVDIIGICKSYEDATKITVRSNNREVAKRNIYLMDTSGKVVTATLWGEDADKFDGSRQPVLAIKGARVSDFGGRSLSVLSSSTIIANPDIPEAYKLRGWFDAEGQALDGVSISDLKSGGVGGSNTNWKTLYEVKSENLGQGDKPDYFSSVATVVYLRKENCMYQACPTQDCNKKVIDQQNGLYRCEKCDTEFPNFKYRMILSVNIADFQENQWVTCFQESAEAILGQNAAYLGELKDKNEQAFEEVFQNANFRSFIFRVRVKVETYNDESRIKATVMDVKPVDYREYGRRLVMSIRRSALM
Chain of RPA heterotrimer (RPA1, RPA2, RPA3) (P15927 whole entry, chain 2 of 3): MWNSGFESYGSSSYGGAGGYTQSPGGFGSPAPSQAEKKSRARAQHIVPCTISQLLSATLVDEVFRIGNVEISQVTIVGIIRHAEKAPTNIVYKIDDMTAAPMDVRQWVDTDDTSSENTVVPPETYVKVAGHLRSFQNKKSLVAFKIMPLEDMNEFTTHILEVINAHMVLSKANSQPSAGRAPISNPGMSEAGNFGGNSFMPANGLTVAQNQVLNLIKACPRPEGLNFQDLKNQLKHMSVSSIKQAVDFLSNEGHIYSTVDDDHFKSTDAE
Chain of RPA heterotrimer (RPA1, RPA2, RPA3) (P35244 whole entry, chain 3 of 3): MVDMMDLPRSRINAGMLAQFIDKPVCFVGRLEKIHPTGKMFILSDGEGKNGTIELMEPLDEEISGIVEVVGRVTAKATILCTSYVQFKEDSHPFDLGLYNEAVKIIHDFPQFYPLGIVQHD

For the molecule TTTTTTTTTTTTTTTTTTTTTTTTTTTTTTTTTTTTTTTTTTTTTTTTTT (ssDNA) [Cy5.5-oligodT 50-mer], the binding result is “binds”.
